Biological target: T1, CD47, biotin-conjugated antigen (Homo sapiens, UniProt Q08722, biotin-conjugated)
T1 construct: CD47; Probably the extracellular domain (surmise); also called antigen CD47; source: bought: Sino Biological Inc
Assay: BLI; ForteBio Octet RED96; streptavidin-coated tips loaded with biotin-conjugated PD-L1 or CD47 (100 nM); antibodies or fusion proteins in solution at 25, 50, 75, 100, 125 and 150 nM; dissociation in PBS; 37 °C; global fit, KD = kd/ka
Conditions: both partners purified

B1: anti-CD47 mAb (B6H12), positive control antibody made in-house (antibody, V domains shown)
VH: EVQLVESGGGLVQPGGSLRLSCAASGFTFSGYGMSWVRQAPGKGLEWVATITSGGTYTYYPDSVKGRFTISRDNAKNSLYLQMNSLRAEDTAVYYCARSLAGNAMDYWGQGTLVTVSS
VL: EIVLTQSPATLSLSPGERATLSCRASQTISDYLHWYQQKPGQAPRLLIKFASQSISGIPARFSGSGSGTDFTLTISSLEPEDFAVYYCQNGHGFPRTFGQGTKVEIK
notes: source: produced in-house from plasmids pUC57/B6H12-Lc and pUC57/B6H12-Hc
B1 gave a Kd of 4.08 pM, a koff of 3.99e-07 s⁻¹ and a kon of 97900 M⁻¹ s⁻¹.
